Laboratory results reported in the DeepSol protein solubility set.

Experiment: soluble on expression in E. coli; label from the status in PepcDB or PDB records
For “GPGSMSSSAPLSTQQPAPLPLQRQQQQQSTQSMLDAIRQQGWGSASSGGGDAMPSDASSRGMEGHSGAKLACPQMHEGHSAISSRPFNSEGADKPFAAVAATREASEAAKNSYDSMQPSADSQQLRGAEGECALPGHANAAAAAATLRNTNGVCEAIVTAARYGRSMEPSASVPAVTATAALVNVVAEEKERRRLSGPFGSYSTTDEVFHQKCNDVQRGSAIESADSRTDASGGALVVSPAYAAVPARVSEAPSPVDAEMQQLLADARRAYTAAEERLLSDGLALREDWMGTRDLFFAAGSLFAAVGEAADAARCLLHATFINRAFQNDSEAMVTLAMSVEQLKQSHPRIAVDSLLRLAPCYAQQDLRYQAARCHRDAAEILENILEAKEEAVVQYRAALDMYAETKVAAAETARRWERQQQQQRTAAIWGDLTGTPPLPPSAGASATNGDLTSPTAPGGVEATSLGSEQPFVSPKSTAPVPSSGGDSLTSSVNGQKPHSLEFPAHGPPQYRVSTTVQRSLADSCRWRLMILLTLLGRYDEAREAALDCAANVPRTLPKTKYLLYATLCVLARGASVKTDSTANSVSDPAAAAEAAQAPETPTTPFTAAAADTVYFDSLYDTEKFFLGLQDEDRTFQRGKENALVRALLAANRACSLTAFDEAVRAYKEYSTTEPCAAFELLAGECRRSLFEHMERFA”, the “soluble on expression in E. coli” value was “not soluble”.
For “GPGSMSTALFVQATFFNTDNKSTDNKLMTTAAVSHNQSSQDNIMVVNLQKELQKRLEEDAGVKTLYITMGGEPRFNRALFENKSMALFVGDSMSIHHFTDDYGRITRRLLILYPMTFSRREEIPKQQILKKVEKAANQPEDNCGIEVVDLVELQKKHVYLEGQAAACYSYNGEFVYMALSGRSSEQVLSIICAPENLNIPNEKRFVFTAVLPHRSKENGRVIGEDVIPYTSLVGWCGKGICAWGLEFLRFPSEKDQEAFYEHLENNYSKVINLDESELRAFCGNAREVAIAHGNGERRVLCISHQALNALRPFKRQMLEDWYGLGNILPFYADVLERRAGRSVGSLVSVPVIHGEVLPLPGELGVIEAAKVDIKDGGC”, the “soluble on expression in E. coli” value was “soluble”.
With “GPGSMSTTAHATSMGPLPYPNALQSRHTTTEQRQIAAAAVRAYQGTLEQEKVLLQENDALLSEEEAGRLQRRVDNQAAADATAAQFRDRACKVVASVPGEQHQSEGGVIDIFHAACDGDVAALDACLRSASDINALGQPDPARYNGFQFKQRWLFRAPPLVFAAAFGREEAVRLLLEHGADPHVASTTGLRAQDYAAQRGYSAIVLMLTSGAPQ” the “soluble on expression in E. coli” value was “soluble”.
For “GPGSMTHNRSGAVRRKVVQHDFYDSADQVGGVVLLNNPTNGSWEYDEYLRLLTTKRYSRIPSWEAHSTAQCYFVCADGVYPKLQSYVKERQVSHPHLRLFQFFPLCDAVIGDMDSYVTSYEKDGCERPSSTPEGGYGTVDDIPVEVLDTIHHRCRSAAALFREVDGSVPDTPLNGWKMLHEEHSHPLLRPLWLHIQCQITTDFKKALTLLKRLRKRYPDENAVVLPPVLRSPGAARILETGGGVVDQRNCGCDNDPIQERELCVAASQVEALLLPTVVAVGAFGGRFDHEVGAISTMLSESHDAHIVLINLFNTVFACQGGGWTQIVRQPEYEDKTCGLVNYGRMTECETSGLLWNVVKGRGRPSVTNDFVFDFGAFISVCNIVRREVITVDLRCLLTSVGESPADATTATGASDCEAQRGRGPPVVFSILRRQKKEGG”, the “soluble on expression in E. coli” value was “not soluble”.
In the case of “GPGSMTQPSAVVAIGGGLRLLAQPAPTPTADGSSQALTDVFLSEYCAPLQRSSHHLHTHVPRYTVPTPASRRYTPRAGDPVLAIIARKVSQHYYYCYIGGSALAYMDALAFDGATKVSRPRLVEGDVVYCYVKPREGSSYVDGVHRSVASEVFDTTGEVEVSCTAAEVGLPPKDWTSGEAVFGPLQGGRVLHLPLVYVRRLLTPMGSSPEKASAQQRKRDHTEGEGSDGDEVPASYLLQLLGRRVPFEVAVGLNGLVWVRGLSSEADATAAARRTVAVSSCISEAQYDVTRAEMEARVEVYFPS”, the “soluble on expression in E. coli” value is reported as “not soluble”.
For “GPGSMTSEEAVECTDALELVRCPSSNARVVPNRFDEEYIRGRLQEAEKIFEKAKTDVSRGLSKCEDWLGACEAFNEAGGLFASCGHPAEAARAFFHASIITRAFKDEEETTTALSLAVENMQLVEPLLAVNLMQKISETLKKGGFFFQAARCKRDSALLLEDRLGEPERAIELYREAIELYGNRSFMSSFSRGCMERITTLTVELKKYTEASKLFVEETAYAPRGRPKTRQFFLSLLCMLAEGFGDNDRYFDSLYYARKRFHALQEEERDFQHGKENRLVRKIIEANDNGSLTAFDTAVYEYRSSSTYVPDAVFENLIERCRKNLYEHLEQYI”, the “soluble on expression in E. coli” value was “soluble”.
For “GPGSMVEHTGLKYQFFIRAASVDWDARDRESMAAGLCPLYQLLHCDVEKLQFVVYCFGEGEAYMFEKAIQTVTKYVDEEKCIMAVRSLRQRETKGHIIYDVAKKETQPAQFFFLLSYAWGMIAVSFPKVTNYDKWEKQKGAARIIMNCPAEMDVKAMCAWMKRGLDPDEQTKYWKMVETHMEKVGPIPRYIFDANKFLAHFAATEDALDGINPRDGESHFTHGGVRLWYSEDPSHKLVRVVRTRGEVGAEVFLNAPISVCLGRRIPLYFWKRDE”, the “soluble on expression in E. coli” value was “not soluble”.
In the case of “GPGSMVHSYGYKSGTRHLFAKKFRKHGAPSVSTILTNIKVGDYVDVVADSAVREGMPHKYYHGRTGIVWNVTPRGVGVIINKPVRTRTLRKRICVRFEHVRKSRCQEAFKAKEHQFQAYLAAKKAGKALPPLQKSSRLGGIVRPKTVEVLARRVADYEAMVPY”, the “soluble on expression in E. coli” value is reported as “not soluble”.
For “GPGSMVSRDSRYIHRRWYLEDATLTIQQPKLELLVDFDDPSSFAFPANLPPTLGMRRAAAVATATGGLSGVMGLGSEGNLLADWREIGIPPFTEE”, the “soluble on expression in E. coli” value was “not soluble”.
For “GPGSMYQLWGGSPFKPHKQNPSIMIDKSGTEVRLIGESRDVLQTLATNPKWANTYLAISSTCDVPSWARELLGTFEFTDYAGKTVPMHSLFSDRIEIYKANKAKQHEMILQKVNKVDPSVSEYAQMLFFDNQTDNVRHVSGIGVTSCYCPSGMTKGTFEKGLEMWRRAAAVEDVRYDRVVECRA”, the “soluble on expression in E. coli” value was “not soluble”.
In the case of “GPGSMYTHTRMHTTSASATLLSLPLCVRASPTNTPAAQLSALSDHLGLRVIKTNNLHTSSRSNMPAKAAAKPVKPAAKAAPKPANKAPAPKAAAAKPVAKAAPKAAAPAARPASGSSNGVYVKNWGTGSVADAANVFSAAGKVVKVQLRRQRYAIVFFENSAAVKKAIDLFNEKEVLGKTVLVVPAKTSPKPDAHENSSCVFVSPIFRPSTTKAQVMELFAGVKVQRLRMYRQNFAYAYLDSPAAAKKFVEEKNGTEFRGHTLRVALSARSLEKLRARQEAANVVIAAHRHYKTHERQ”, the “soluble on expression in E. coli” value is reported as “not soluble”.
For “GPGSNYTFSMRATLDDPDVQNGITQGDRQQIQDAVNAASSWLEKNREATKEEYMEQTKLIEGIAHPILSEFYKKRVMEAPPSAGPKDGAPSDEVPHAEDVD”, the “soluble on expression in E. coli” value was “soluble”.
With “GPGSTGRSQATRTQERQEGRKKDMESKGTPTTRHPHVLTTARRKKETLWHGTPKRQTNPTTAVASKSEVVATSPHDGGSGRLPEDSQEATDEVVTLSSASSPLSRTLDGSCMPFAPPLGSDMAVTVACGPVNRTSLLSTEEKTAHAILGQADAMTDRRRSEEMLYYLEAARALREVTSGVEAREQCLRDEIERQSTLYSAKKLDLAEKQKVYERLHESTLRLTRNVRRIDSENDRIRDRLTKLQMTIEKMESRKLPRHIQQDVDRVVRCESVPSWQGANQRVGGCEAIVPMRSVGSVAKNTLMTELEMYTRKLRSAEVRHDKLIKELQLAVARRKGRAAAYNSFGASLSFSGYSGMGNRDGSFLTDSVGESIAIQQLERMIDDSLIRCK” the “soluble on expression in E. coli” value was “not soluble”.
For “GPHMGGSMFSWLKKGGARGQRPEAIRTVTSSLKELYRTKLLPLEEHYRFGSFHSPALEDADFDGKPMVLVAGQYSTGKTSFIQYLLEQEVPGSRVGPEPTTDCFVAVMHGETEGTVPGNALVVDPEKPFRKLNPFGNTFLNRFMCAQLPNQVLESISIIDTPGILSGAKQRVSRGYDFPAVLRWFAERVDLIILLFDAHKLEISDEFSEAIGALRGHEDKIRVVLNKADMVETQQLMRVYGALMWALGKVVGTPEVLRVYIGSFWSQPLLVPDNRRLFELEEQDLFRDIQGLPRHAALRKLNDLVKRARLVRVHAYIISYLKKEMPTVFGKENKKKQLILKLPVIFAKIQLEHHISPGDFPDCQKMQELLMAHDFTKFHSLKPKLLEALDDMLAQDIAKLMPLLRQEELESVEAGVAGGAFEGTRMGPFVERGPDEAIEDGEEGSEDDAEWVVTKDKSKYDEIFYNLAPADGKLSGSKAKTWMVGTKLPNSVLGRIWKLSDVDRDGMLDDEEFALASHLIEAKLEGHGLPTNLPRRLVPPSKRRQKGSAE”, the “soluble on expression in E. coli” value was “soluble”.
In the case of “GPHMVIRAEKMEAVTHLAASISHEIRNPLTAARGFIQLIEEQPLAADKRRQYARIAIEELDRAEAIITDYLTFAKPAPETPEKLNVKLEIERVIDILRPLANMSCVDIQATLAPFSVIGEREKFRQCLLNVMKNAIEAMPNGGTLQVYVSIDNGRVLIRIADTGVGMTKEQLERLGEPYFTTKGVKGTGLGMMVVYRIIESMNGTIRIESEIHKGTTVSIYLPLASSPSSSTISDKEKQLFAAL”, the “soluble on expression in E. coli” value is reported as “soluble”.
For “GPLGSKDTRPQTDDVLNTKGNTFEDFYLKRELLMGIFEAGFEKPSPIQEEAIPVAITGRDILARAKNGTGKTAAFVIPTLEKVKPKLNKIQALIMVPTRELALQTSQVVRTLGKHCGISCMVTTGGTNLRDDILRLNETVHILVGTPGRVLDLASRKVADLSDCSLFIMDEADKMLSRDFKTIIEQILSFLPPTHQSLLFSATFPLTVKEFMVKHLHKPYEINLMEELTLKGITQYYAFVEERQKLHCLNTLFSKLQINQAIIFCNSTNRVELLAKKITDLGYSCYYSHARMKQQERNKVFHEFRQGKVRTLVCSDLLTRGIDIQAVNVVINFDFPKTAETYLHRIGRSGRFGHLGLAINLINWNDRFNLYKIEQELGTEIAAIPATIDKSLYVAENDET”, the “soluble on expression in E. coli” value was “soluble”.
In the case of “GPLGSNEEANRFANQAKLRVQEAVFYIWSDKTLKYSQMANDEAESFRNTWLLFRSFQQWITLTQTFKEQSRLADQAFLNKMFRKILKAQEHWKH”, the “soluble on expression in E. coli” value is reported as “soluble”.
In the case of “GPSDMYVHVGNLIYRNLHLFNSEMHESILVSYSSDLIIYRTNTVGDDYIPSCDCTQATYYCKHKNRYFPITVTSHDWYEIQESEYYPKHIQYNLLIGEGPCEPGDCGGKLLCKHGVIGIVTAGGDNHVAFIDLRHFHCAEEQ”, the “soluble on expression in E. coli” value is reported as “soluble”.
With “GRVESVWDLKGVWADQAQSDSQGSTTTATRNALPEHPNALAFQVSVVEASAYKPNTSSGQTQSTNSSPYLHLVKPKKVTQSDKLDDDLKNLLDPNQVRTKLRQSFGTDHSTQPQPQSLKTTTPVFGTSSGNLSSVLSGGGAGGGSSGSGQSGVDLSPVEKVSGWLVGQLPSTSDGNTSSTNNLAPNTNTGNDVVGVGRLSESNAAKMNDDVDGIVRTPLAELLDGEGQTADTGPQSVKFKSPDQIDFNRLFTHPVTDLFDPVTMLVYDQYIPLFIDIPASVNPKMVRLKVLSFDTNEQSLGLRLEFFKPDQDTQPNNNVQVNPNNGDFLPLLTASSQGPQTLFSPF” the “soluble on expression in E. coli” value was “soluble”.
For “GRYTQIRFDEDIKRPFPELQQEFLSLLRKSVSEAVQGQKAGTFLSGGTDSSTLAGILTEVTGEPAKTYSIGFEATGYDEMHYARIAARHFATDHHEYYVTPDDVVETIPLIASVFDQPFGNASALPAYYCGRMARNDGLDLLLGGDGGDELFGGNVRYAKQYIFSLYDKIPAPLRNYLLSPFILSLPENKGPKLLRKARSYVAQATVPMPHRMETYNLLAHYGFETVFSPELLAKIDTAQPALLIERTYQDVSHARSLINRMLAFDWKFTLADNDFPKVVQACHLAGMEVAFPFVNDEILAFSLALPPEQKLKGTQLRYFFKQALRGFLPDEIITKQKQGFGLPFGVWLQTHRPLREIAADSLSDLKSRNIIRTDFIDQLLDQHLHEHASYHGTMVWLLMMLEYWFKQH”, the “soluble on expression in E. coli” value was “not soluble”.
For “GSDGTREFLTFEVPLNDSGSAGLGVSVKGNRSKENHADLGIFVKSIINGGAASKDGRLRVNDQLIAVNGESLLGKANQEAMETLRRSMSTEGNKRGMIQLIVARRISRCNE”, the “soluble on expression in E. coli” value was “soluble”.
